In paper doi:10.1101/2024.01.10.575067:

Biological target: tetra-Cys human GAPDH (TC-hGAPDH), bacterially expressed and purified (human) (UniProt P04406)
Experiment: SEC

Substance: tetra-Cys human GAPDH (TC-hGAPDH), bacterially expressed and purified (from UniProt P04406 1-335) (enzyme)
- stoichiometry N: 4
